Test: yeast display, Sf9 membrane polyspecificity reagent, FACS + sequencing; frameworks hold sequencing errors
Outline: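 Galactose-induced (36–48 hours) yeast carrying a synthetic nanobody display library were exposed to 10% biotinylated, detergent-solubilized Sf9 membrane reagent at 4 °C for 1 hour. FACS followed streptavidin microbead enrichment, using low and high (top ~1%) gates for expression (anti-HA) and reagent binding (streptavidin). Colony PCR, MiSeq 2 × 250 sequencing and CDR-length filtering followed. Labels for polyreactivity reflect the gate of origin.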

Sequence | polyreactivity (PSR sort gate)
QVQLVESGGGLVQAGGSLRLSCAASGFIFDYYAMGWYRQAPGKERELVAGISWSGGSTYYADSVKGRFTISRDNAKNTVYLQMNSLKPEDTAVYYCNAEYSVPFYLYYYWGQGTQVTVSS | low polyreactivity
QVQLVESGGGLVQAGGSLRLSCAASGRIFYGNAMGWYRQAPGKERQLVAAITDGGSTNYADSVKGRFTISRDNAKNTVYLQMNSLKPEDTAVYYCAKDYRGSYYKYDYWGQGTQVTVSS | low polyreactivity
QVQLVDSVGGLVQAGGSLRLSCAASGFIFGRNSMGWYIQAPGKERELVAGISSRGGRTYYADSVKGRFTISRDNAKNTVYLQMNSLKPEDTAVYYCAAAGLTDYVRYDYWGQGTQVTVSS | high polyreactivity
QVRLVESGGCLVQAGGSLRLSCAASGSTFRRYAMGWYRQAPGKERELVAAITVGGGSTYYADSVKGRFTISRDNAKNTVYLQMNSLKPEDTAVYDCSVSRYPYFRYDYWGQGTQVTVSS | high polyreactivity
QVQLVESGGGLVQAGGSLRLSCAASGLTFQENGMGGYRQAPGKERELVASITTIGGSTYYADSVKGRFTISRDNAKNTVYLQMKSLKPEDTAVYYCAALSPIYATYGHDYWGQGTQVTVSS | low polyreactivity
QVQLVESGAGLVQAGGSLRLSCAASGIIFSDNAMGWYRQAPGKEMELVAAIDWSGGSTYYADSVKGRFTISRDNAKNTVYLHMNSLKPEDTAVDYCAAEYRDYVPVNVTGDYWGQGTQVTVSS | low polyreactivity
QVQLVESGGGLVQAGGSLRLSCAASGSIFFYYAMGWYRQAPGKERELVAAIRSGTSTNYADSVKGRFTISRDNAKNTVYLQMNSLKPEDTAVYYCAARFPGGGYGMDYWGQGTQVTVSS | low polyreactivity
QVQLVESGGGLVQAGGSLSLSCAASGGIFAYNAMGWYRQAHGKEREWVATISSGVSTNYADSVKGRFTISRDNAKNTVYLQMNSLKPEDTAVYYCAAAIFITGYGSYGYWGQGTQVTVAS | low polyreactivity
QVQLQESGGGLVQAGGSLRQSCAASGYIFPYYSMGWYRQAPGKERGLVACIAAGTTTNYADSVKGRFTISRDNAKNTVYLQMISLKPEDAAVYYCAALNAFNTGHWYWGQGTQVTVSS | low polyreactivity
QVQLHESGGGLVQAGGSLRLSCAASGTISYAGPMGWYRQAPGKEREFVAGIGVGSNTNYADSVKGRYTIIRDNAKNTVYLQMNSLKPVDTAVYYCAVGGYAPLGRPYWGQGTQVTVSS | low polyreactivity
QVQLVESGGGLVQAGGSLRLSCAASGRIFRYYSMGWYRQAPGKERELVAAISRSGSTNYADSVKGRFTISRDNAKNTVYFQMNSLKPEDTAVYYCAADSNYLYFWRRYKRMDYWGQGTQVTVSS | high polyreactivity
QVQLVESGGGLVQAGGSLRLSCAASGRIFSKNAMGWYRKAPGKERELVAAISWSGGSTYYADSVKGRFTISRDNAKNTVYLQMNSLKPEDTAVYYCAADSPRYGGYGYWGQGTQVTVSS | low polyreactivity
QVQLVESGGGLVQAGGSLRLSCAASGFIFSRYAMGWYRQAPGKERELVAAISIGGSTYYADSVKGRFTISRDNAKNTVYLQMNSLKPEDTAVYDCAVDYRHSSSWNAGPWEMYYWGQGTQVTVSS | low polyreactivity
QVQLVESGGGLVQAGGSLRLSCAASGIIFARYAMGWYRQAPGKERELVASINWTGGNTYADSVKGRFTISRDNAKNTVYLQMNSLKPEDTAVYYCARDFCPGSSDPKASISFDHWGQGTQVTVSS | low polyreactivity
QVQLVESGGGLVQAGGSLRLSCAASGFIFWYYDMGWYRQAPGKERELVAAISDRGGSTSYADSVKGRFTISRDNAKNTVYLQMNSLKPEDTAVYSCAVDRSLSPFAYDYWGQGTQVTVSS | low polyreactivity
QVQLVESGGGLVQAGGSLRLSCAASGRTILLNDMGWYRQAPGKERELVAGITRSGGSTYYADSVKGRFTISRDNAKNTVYLQMNSLKPEDNAVYYCAADFKPLYYDEYDYWGQGTQVTVSS | low polyreactivity
QVQLQESGGGLVQAGGDLRLICAASGNIFRDYIMGWYRQAPGKEREFVAGIDRGANTNYADSVIGRFTISRDNAKNSVFLQMNSRKPEVTAVYYCAVHNAIGPDFIYWGQGTQVTVSS | low polyreactivity
QVQLVESGGGLVQAGGSLRLSCAASGYTFGPYAMGWYRQAPGKERELVAAITTRGGSTYYADSVKGRFTISRDNAKNTVYLQMNSLKPEDTAVYSCAAVVNSKSIQRVVRYYYWGQGTQVTVSS | high polyreactivity
QVQLVESGGGLVQAGGSLRLSCAASGFTFRRNAMGWYRQAPGKERELVAAITRGGGSTYYADSVKGRFTISRDNAKNTVYLQMNSLKPEDTAVYYCAADGYYQYESWGQGTQVTVSS | high polyreactivity
QVQLVESGGGLVQAGGSLRLSCAASGIIFAHNAMGWYRQAPGKERELVAAISKRGGSTYYADSVKGRFTISRDNAKNTVYLQMNSLKPEDTAVYYCNKYSSYSFTYDSWGQGTQVTVSS | high polyreactivity
QVQLVESGGGLVQAGGSLRLSCAASGRTFVRNAMGWYRQAPGKERELVAAISGSAGRTYYADSVKGRFTISRDNAKNTVYLQMNSLKPEDTAVYYCAKDTTVYGYYYWGQGTQVTVSS | high polyreactivity
QVQLVESGGGLDQAGGSLRLSCAASGFTLYRNAMGWYRQAPGKERELVAAITSSGGRTYYADSVKGRFTISRDNAKYTVYLQMNSLKPEDTAVYYCAAEFGLGYYYWGQGTQVNVSS | high polyreactivity

Sequence | polyreactivity (PSR sort gate)
QVQLVESGGGLVQAGGSLRLSCAASGSIFYAYAMGWYRQAPGKERELVATISSVGSTYYADSVKGRFTISRDNAKNTVYLQMNSLKPEDTAVYYCAKQRIVVYKTGYDYWGQGTQVTVSS | low polyreactivity
QVQLVESGGGLVQAGGSLRLSCAASGSTFPVYVMGWYRQAPGKERELVAAITRIGGSTYYADSVKGRFTISRDNAKNTVYLQMNSLKPEDTAVYYCAAGGTARDDSWGQGTQVTVSS | low polyreactivity
QVQLVESGRGLVRAGGSLPFSCAASAGNFMRYAMGWYRQAPGKERELVAAITANGGSTYYADSVKGRFTISRDNAKNTVYLQMNSLKPEDTAVYYCNADTGVRSYRRDYWGQGSQVTVSS | low polyreactivity
QVQLVESGGGLVKAGGSLRLSCAASGSSFSSYAMGWYREAPGKEWELVAAISGGGNTYYADSVKGRFTISSDNAKNTVYLQMNSLKPEDTAVYYCNKSRLEPEYGYWGQGTQVTVSS | low polyreactivity
QVQLVESGGGLVQAGGSLRLSCAASGSIFRRYAMGWYRQAPGKEREFVAAITRSGGGTYYADSVKGRFTLSRDNAKNTVYLQMNSLIPEDTAVYYCAKDVFVQRSRYPEGDYWGQGTQVTVSS | high polyreactivity
QVQLVESGGGLVQAGGSLRLSCAASGFIFAFYAMGWYRQAPGKERELVAAISLSGGSTYYADSVKGRFTISRDNAKITVYLQMNSLKPDDTAVYYCAASRYKFYYWGQGTQVTVSS | high polyreactivity
QVQLVESGGGLVQAGGSLRLSCAASGRTFFKNALGWYRQAPGKERELVASISSRSGTTYYADSVKGRFTISRDNAKNTVYLQMNSLKPEDTAVYYCAASRNRYSYGYWGQGTQVTVSS | high polyreactivity
QEQLQESGGGLVQACGSLRLSCAASGYIFSHQYMGWYRQAPGKERELVASISPGATTNYADSVKGRFTISRDNAKNTVYLQMNSLKPEDTAVYYFAVYKILDRRLSYWGQGTQVTVSC | high polyreactivity
QVQLVESGGGLVQAGGRLSLSCAASGSTFAYYAMGWYRQAPGKERELVAGITWTGGSTYYADSVKGRFTNSRDNAKNTVYLQMNSLKPEDTAVYYCAVTYPYGYEYDHWGQGTQVTVSS | low polyreactivity
QVQLVESGGGLVQAGGSLRLSCAASGSTFGSNAMGWYRQAPGKEREFVAAISRRGGSTYYADSVKGRFTISRDNAKNTVYLQMNSLKPEDTAVYYCAADYISLREEDYWGQGTQVTVSS | high polyreactivity
QVQLVESGGGLVQAGGSLRLSCAASGSIFRVYAMGWYRQAPGKERELVASMSSDGSTYYADSVKGRFTISRDNAKNTVYLQMNSLKPEDTAVYYEYDWGQGTQVTVSS | low polyreactivity
QVQLVESGGGLVQAGGSLRLSCAASGLTFKFNAMGWYIQAPGKERELVADISFGGDDTYYSDSVKGRFTISRDNAKNTVYLQMNSQKPEDNAVYYCAAEYDTWGYSGRDYWGQGTQVTVSS | low polyreactivity
QLQRVESGGGLVQAGGSLRLSCAASGSIFNENAMGWYIQAPGKERELVAGIDSGGNTYYADSVKGRFTISRDNAKNTVYLQMISLKPEDTAVYYCAKRGVPVRASATFLFEFDYWGQGTQVPVSS | low polyreactivity
QVQLVESGGGLVQAGGSLSLSCAASGSIFRTYALGWYRQAPGKERELVASITKSGARTYYADSVKGRFTISRDNAKNTVYLQMNSLKPEDTAVYYCAAGYYSVTSRRYRMYYWGQGTQVTVSS | high polyreactivity
QVQLVESGGGLVQAGGSLRLSCAASGNIFSFYTMGWYRQAPGKERELVAAISWSGTSTYYADSVKGRFTISRDNAKNTVYLQMNSLKPEDTAVYYCAAVRRISRYDYWGQGTQVTVSS | high polyreactivity
QVQLVESGGGLVQAGGSLRLSCAASGRIFRANAMGWSRQAPGKERELVAAISTSGGSTTYADSVKGRFTISRDNSKNTVYLQMNSLKPEDTAVYYCAVDSWLKWRDKWVIRHDYWGQGTQVTVSS | high polyreactivity
QVQLVESGAGLVQAGGSLRLCCAASGRIFRSYAMGLYREAPGKERELVAAITWSGGSTYYADSVKGRFTISRDNAKNSVYLQMNSQKPEETAVYYCARVDTKKYSHTGYEYWGQGTQVTVSS | high polyreactivity
QVQLVESGGCLVQAGGSLRLSCAASGSTFVHNAMGWYRQAPGKERELVAAISESGGGTYYADSVKGRFTISRDNAKNTVYLQMNSLKPEDTAVYYCAAPPAGENWRDGGGYWGQGTQVTVSS | low polyreactivity
QVQLVESGGGLVQAGGSLRLSCAASGSTFTLYAMGGYIQAPGKERELVAAITSDDSTYYADSVKGRFTISRDNAKNTVYLQMNSLKPEDTAVYYCAADVYYGDFEMDYWGQGTQVTVSS | low polyreactivity
QVQHVESGGGLVQAGGSLRLSCAASGITFRVNAMGWYRQAPGKERELVASISRSGGSTYYADSVKGRFTISRDNAKNTVYLQMNSLKPEVTAVYYCAAAQKVLFYGRWFDYWGQCTQVTVSS | low polyreactivity
QVQLVESGGGLVQAGGSLRLSCAASGSTFGYYGMGWYRQAPGKERELLAAISTGGRTNYADSVKGRFTISRDNAKNTVYLQMNSLKPEDTAVYYCAADFLSPAYRPSWYRFDYWGQGTQVTVSS | low polyreactivity
